Test results from US20180092984A1 (Seagen, published 2018).

Experiments:
human CD48 [1] = target: T1, human CD48 (human, UniProt P09326 27-220); assay: flow cytometry saturation binding, Alexa Fluor-647 antibody on U-266 cells
T1 construct: whole, on cells; also called BLAST-1; SLAMF2
T1 sequence (looked up): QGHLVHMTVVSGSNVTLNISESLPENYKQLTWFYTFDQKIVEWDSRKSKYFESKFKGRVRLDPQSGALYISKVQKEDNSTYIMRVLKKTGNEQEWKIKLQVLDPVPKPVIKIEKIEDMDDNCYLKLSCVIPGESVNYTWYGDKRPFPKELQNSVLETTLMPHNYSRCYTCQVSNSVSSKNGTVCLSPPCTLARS
Method: (§1) After one hour incubation on ice, cells were washed twice with phosphate buffered saline containing 2% fetal bovine serum and 0.02% sodium azide. Fluorescence was detected on a LSRII flow cytometer and Kd values were determined using one-site binding (hyperbola) non-linear regression in GraphPad Prism.

[2] = target: cynomolgus monkey CD48 (cynomolgus monkey); assay: flow cytometry saturation binding on CHO-DG44 cells expressing cynomolgus monkey CD48
human CD48 [3] = target: T1, human CD48; assay: flow cytometry saturation binding on U-266 cells
Method: as §1

human CD48 [4] = target: T1, human CD48; assay: flow cytometry saturation binding, U-266 cells against CHO-DG44 cynomolgus monkey CD48 cells
Method: as §1

[5] = target: cynomolgus monkey CD48 (cynomolgus monkey); assay: flow cytometry saturation binding, Alexa Fluor-647 antibody on CHO-DG44 cells expressing cynomolgus monkey CD48

## cMEM102 (antibody)
Human CD48 [1]
  Kd: 5.8 nM
[2]
  fold lower Kd compared to mMEM102: > 4 fold
Human CD48 [3]
  fold lower Kd compared to mMEM102: > 4 fold
Human CD48 [4]
  fold stronger binding affinity to human CD48 compared to cynomolgus monkey CD48: 6 fold
[5]
  Kd: 40.5 nM

## mMEM102 (antibody)
Human CD48 [1]
  Kd: 20.8 nM
Human CD48 [4]
  fold stronger binding affinity to human CD48 compared to cynomolgus monkey CD48: 6 fold
[5]
  Kd: 165 nM

B1: hMEM102-HALA (antibody, V domains shown)
VH: QVQLVQSGSELKKPGASVKVSCKASGYTFTDFGMNWVRQAPGQGLEWMGWINTFTGEPSYGNVFKGRFVFSLDTSVSTAYLQISSLKAEDTAVYYCARRHGNGNVFDSWGQGTLVTVSS
VL: EIVLTQSPDFQSVTPKEKVTITCRASQSIGSNIHWYQQKPDQSPKLLIKYTSESISGVPSRFSGSGSGTDFTLTINSLEAEDAATYYCQQSNSWPLTFGGGTKVEIKR
notes: also called humanized MEM102 antibody; humanized MEM102-HALA antibody
Human CD48 [1]
  Kd: 5 nM
[2]
  fold lower Kd compared to mMEM102: > 4 fold
Human CD48 [3]
  fold lower Kd compared to mMEM102: > 4 fold
Human CD48 [4]
  fold stronger binding affinity to human CD48 compared to cynomolgus monkey CD48: ~6 fold
[5]
  Kd: 31.1 nM
